Patent US11260115B1, “Peptides and combination of peptides for use in immunotherapy against CLL and other cancers” (immatics biotechnologies GmbH, priority 2015, dated 2022)

Target: HLA-A*02:01 (Homo sapiens, UniProt P04439, D140Y/D185E/D98H/E176V/E277Q/G131W/G231S/I119V/I121R/I166T/I218V/L300P/L318F/N151K/N90K/P208A/P217A/Q86G/Q94H/R138H/R169H/T345S)
Test: MHC binding assay (UV-ligand exchange, β2m ELISA, peptide exchange yield)
Conditions: binding to HLA-A*02:01
Procedure, shortened: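 Peptide-HLA-A*02:01 complexes formed by UV-mediated exchange of a photocleavable ligand; exchange yield measured by streptavidin-capture ELISA detecting β2m with HRP anti-β2m, TMB read at 450 nm. Refolded monomer standards 15-500 ng/ml; samples diluted 100-fold.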

With “193 (YLDLSNNRL; listed as Homo sapiens) [compound 193]” the “Peptide Exchange (MHC class I binding score, peptide exchange yield)” value (“Peptide Exchange” below) was ““+++” (>50 = +++)”.
With “194 (YLDNVLAEL; listed as Homo sapiens) [compound 194]” the “Peptide Exchange” value was ““++++” (>75% = ++++)”.
With “195 (YLGGFALSV; listed as Homo sapiens) [compound 195]” the “Peptide Exchange” value was ““++++” (>75% = ++++)”.
In the case of “196 (YLLLQTYVL; listed as Homo sapiens) [compound 196]”, the “Peptide Exchange” value is reported as ““+” (>10% = +)”.
With “198 (YLTFLPAEV; listed as Homo sapiens) [compound 198]” the “Peptide Exchange” value was ““+++” (>50 = +++)”.
For “199 (YLVELSSLL; listed as Homo sapiens) [compound 199]”, the “Peptide Exchange” value was ““++++” (>75% = ++++)”.
For “202 (YVDDVFLRV; listed as Homo sapiens) [compound 202]”, the “Peptide Exchange” value was ““++++” (>75% = ++++)”.
“203 (ALLSSQLAL; listed as Homo sapiens) [compound 203]” was tested, and the “Peptide Exchange” value was ““+++” (>50 = +++)”.
In the case of “204 (GLLQINDKIAL; listed as Homo sapiens) [compound 204]”, the “Peptide Exchange” value is reported as ““+++” (>50 = +++)”.
For “205 (GLSQANFTL; listed as Homo sapiens) [compound 205]”, the “Peptide Exchange” value was ““+++” (>50 = +++)”.
With “206 (HMQDVRVLL; listed as Homo sapiens) [compound 206]” the “Peptide Exchange” value was ““+++” (>50 = +++)”.
For “207 (IIADLDTTIMFA; listed as Homo sapiens) [compound 207]”, the “Peptide Exchange” value was ““+++” (>50 = +++)”.
“208 (ILLKTEGINL; listed as Homo sapiens) [compound 208]” was tested, and the “Peptide Exchange” value was ““+++” (>50 = +++)”.
With “209 (ILQAELPSL; listed as Homo sapiens) [compound 209]” the “Peptide Exchange” value was ““+++” (>50 = +++)”.
“210 (KLLVQDFFL; listed as Homo sapiens) [compound 210]” was tested, and the “Peptide Exchange” value was ““+++” (>50 = +++)”.
For “211 (LIDVKPLGV; listed as Homo sapiens) [compound 211]”, the “Peptide Exchange” value was ““+++” (>50 = +++)”.
In the case of “214 (RLQELTEKL; listed as Homo sapiens) [compound 214]”, the “Peptide Exchange” value is reported as ““+++” (>50 = +++)”.
In the case of “215 (VMQDIVYKL; listed as Homo sapiens) [compound 215]”, the “Peptide Exchange” value is reported as ““+++” (>50 = +++)”.
With “216 (WLAGDVPAA; listed as Homo sapiens) [compound 216]” the “Peptide Exchange” value was ““+++” (>50 = +++)”.
For “217 (ALDEPPYLTV; listed as Homo sapiens) [compound 217]”, the “Peptide Exchange” value was ““+++” (>50 = +++)”.
In the case of “218 (ALGEEWKGYVV; listed as Homo sapiens) [compound 218]”, the “Peptide Exchange” value is reported as ““++” (>20% = ++)”.
In the case of “219 (ALLNLLESA; listed as Homo sapiens) [compound 219]”, the “Peptide Exchange” value is reported as ““+++” (>50 = +++)”.
“220 (ALPEILFAKV; listed as Homo sapiens) [compound 220]” was tested, and the “Peptide Exchange” value was ““+++” (>50 = +++)”.
With “221 (ALVSTIIMV; listed as Homo sapiens) [compound 221]” the “Peptide Exchange” value was ““+” (>10% = +)”.
In the case of “222 (ALWELSLKI; listed as Homo sapiens) [compound 222]”, the “Peptide Exchange” value is reported as ““+++” (>50 = +++)”.
In the case of “223 (ALWVSQPPEI; listed as Homo sapiens) [compound 223]”, the “Peptide Exchange” value is reported as ““+++” (>50 = +++)”.
“224 (AMEALVVEV; listed as Homo sapiens) [compound 224]” was tested, and the “Peptide Exchange” value was ““+++” (>50 = +++)”.
“225 (ILQERELLPV; listed as Homo sapiens) [compound 225]” was tested, and the “Peptide Exchange” value was ““+++” (>50 = +++)”.
With “226 (AMNISVPQV; listed as Homo sapiens) [compound 226]” the “Peptide Exchange” value was ““+++” (>50 = +++)”.
For “227 (FLAEASVMTQL; listed as Homo sapiens) [compound 227]”, the “Peptide Exchange” value was ““+++” (>50 = +++)”.
“228 (FLGGLSPGV; listed as Homo sapiens) [compound 228]” was tested, and the “Peptide Exchange” value was ““+++” (>50 = +++)”.
For “229 (FLLNLQNCHL; listed as Homo sapiens) [compound 229]”, the “Peptide Exchange” value was ““++++” (>75% = ++++)”.
With “230 (FLQDSKVIFV; listed as Homo sapiens) [compound 230]” the “Peptide Exchange” value was ““+++” (>50 = +++)”.
“231 (FLYIRQLAI; listed as Homo sapiens) [compound 231]” was tested, and the “Peptide Exchange” value was ““+++” (>50 = +++)”.
“232 (FMHQIIDQV; listed as Homo sapiens) [compound 232]” was tested, and the “Peptide Exchange” value was ““++++” (>75% = ++++)”.
For “233 (GIIDINVRL; listed as Homo sapiens) [compound 233]”, the “Peptide Exchange” value was ““++” (>20% = ++)”.
In the case of “234 (GLDDAEYAL; listed as Homo sapiens) [compound 234]”, the “Peptide Exchange” value is reported as ““++” (>20% = ++)”.
For “235 (GLDDLLLFL; listed as Homo sapiens) [compound 235]”, the “Peptide Exchange” value was ““+++” (>50 = +++)”.
In the case of “236 (GLLESGRHYL; listed as Homo sapiens) [compound 236]”, the “Peptide Exchange” value is reported as ““+++” (>50 = +++)”.
“237 (GLQENLDVVV; listed as Homo sapiens) [compound 237]” was tested, and the “Peptide Exchange” value was ““++++” (>75% = ++++)”.
With “238 (GLVETELQL; listed as Homo sapiens) [compound 238]” the “Peptide Exchange” value was ““+++” (>50 = +++)”.
“239 (ILAGEMLSV; listed as Homo sapiens) [compound 239]” was tested, and the “Peptide Exchange” value was ““+++” (>50 = +++)”.
With “241 (ILGDILLKV; listed as Homo sapiens) [compound 241]” the “Peptide Exchange” value was ““+++” (>50 = +++)”.
With “242 (ILLGIQELL; listed as Homo sapiens) [compound 242]” the “Peptide Exchange” value was ““+++” (>50 = +++)”.
With “243 (ILPTLEKELFL; listed as Homo sapiens) [compound 243]” the “Peptide Exchange” value was ““+++” (>50 = +++)”.
“244 (ILQALAVHL; listed as Homo sapiens) [compound 244]” was tested, and the “Peptide Exchange” value was ““+++” (>50 = +++)”.
For “245 (KIMDYSLLLGV; listed as Homo sapiens) [compound 245]”, the “Peptide Exchange” value was ““++++” (>75% = ++++)”.
In the case of “246 (KLDETGVAL; listed as Homo sapiens) [compound 246]”, the “Peptide Exchange” value is reported as ““++” (>20% = ++)”.
For “247 (KLKDRLPSI; listed as Homo sapiens) [compound 247]”, the “Peptide Exchange” value was ““++” (>20% = ++)”.
In the case of “248 (KTVEPPISQV; listed as Homo sapiens) [compound 248]”, the “Peptide Exchange” value is reported as ““++” (>20% = ++)”.
